A value given as a limit tells only on which side of the number the result lay.

By Kd is commonly meant the concentration at which binding is half-saturated. Lower therefore signals tighter binding.

B1: H7.5 Fab H-M73R (Fab, V domains shown)
VH: QVQLVQSGAEVKKPGASVKVSCKASGYTLTRYYFHWVRQAPGQGFEWMGIINPNGGGTSYAQKFGDRVIMTSDRSTSTIYMELSSLRSEDTAVYYCARDMPYYHDSGGPLFDLWGQGTLVTVSS
VL: EIVMTQSPSSLSASVGDRVTITCRPSQSISTFLNWYEQKPGKAPKLLIYDASSLQSGVPSRFSGSGSGTEFTLTISSLQPEDFATYYCQQSFSTPYTFGQGTRLEIK
B2: H7.5 Fab H-S74K (Fab, V domains shown)
VH: QVQLVQSGAEVKKPGASVKVSCKASGYTLTRYYFHWVRQAPGQGFEWMGIINPNGGGTSYAQKFGDRVIMTSDMKTSTIYMELSSLRSEDTAVYYCARDMPYYHDSGGPLFDLWGQGTLVTVSS
VL: EIVMTQSPSSLSASVGDRVTITCRPSQSISTFLNWYEQKPGKAPKLLIYDASSLQSGVPSRFSGSGSGTEFTLTISSLQPEDFATYYCQQSFSTPYTFGQGTRLEIK
B3: H7.5 Fab L-T94Q (Fab, V domains shown)
VH: QVQLVQSGAEVKKPGASVKVSCKASGYTLTRYYFHWVRQAPGQGFEWMGIINPNGGGTSYAQKFGDRVIMTSDMSTSTIYMELSSLRSEDTAVYYCARDMPYYHDSGGPLFDLWGQGTLVTVSS
VL: EIVMTQSPSSLSASVGDRVTITCRPSQSISTFLNWYEQKPGKAPKLLIYDASSLQSGVPSRFSGSGSGTEFTLTISSLQPEDFATYYCQQSFSQPYTFGQGTRLEIK
B4: H7.5 Fab H-S58W (Fab, V domains shown)
VH: QVQLVQSGAEVKKPGASVKVSCKASGYTLTRYYFHWVRQAPGQGFEWMGIINPNGGGTWYAQKFGDRVIMTSDMSTSTIYMELSSLRSEDTAVYYCARDMPYYHDSGGPLFDLWGQGTLVTVSS
VL: EIVMTQSPSSLSASVGDRVTITCRPSQSISTFLNWYEQKPGKAPKLLIYDASSLQSGVPSRFSGSGSGTEFTLTISSLQPEDFATYYCQQSFSTPYTFGQGTRLEIK
B5: H7.5 Fab L-Y96A (Fab, V domains shown)
VH: QVQLVQSGAEVKKPGASVKVSCKASGYTLTRYYFHWVRQAPGQGFEWMGIINPNGGGTSYAQKFGDRVIMTSDMSTSTIYMELSSLRSEDTAVYYCARDMPYYHDSGGPLFDLWGQGTLVTVSS
VL: EIVMTQSPSSLSASVGDRVTITCRPSQSISTFLNWYEQKPGKAPKLLIYDASSLQSGVPSRFSGSGSGTEFTLTISSLQPEDFATYYCQQSFSTPATFGQGTRLEIK
B6: H7.5 Fab H-T57A (Fab, V domains shown)
VH: QVQLVQSGAEVKKPGASVKVSCKASGYTLTRYYFHWVRQAPGQGFEWMGIINPNGGGASYAQKFGDRVIMTSDMSTSTIYMELSSLRSEDTAVYYCARDMPYYHDSGGPLFDLWGQGTLVTVSS
VL: EIVMTQSPSSLSASVGDRVTITCRPSQSISTFLNWYEQKPGKAPKLLIYDASSLQSGVPSRFSGSGSGTEFTLTISSLQPEDFATYYCQQSFSTPYTFGQGTRLEIK

The assay deals with H7 Sh2 HA (A/Shanghai/2/2013), ectodomain trimer, cleavage state not stated (influenza A virus (A/Shanghai/2/2013)). Briefly: BLI.
B1 displayed a Kd of under 0.1 nM.
The molecule B2 had a Kd of under 0.1 nM.
In turn, B3 came in with a Kd of over 1000 nM.
The value for B4 was over 1000 nM; that for B5 was 549 nM.
The value for B6 was 116 nM.
